Laboratory results as given in the supplement of paper PMC10567573.

B1: STX11 (parent)
chain: FQRAMHDYNQAEMKQRDNCKIRIQ

Variants of: B1
Assay: protein stability index of a GFP-peptide fusion (GPS, HEK-293T) (PSI 1-6); higher = more stable
Conditions: c terminus: a fixed tail appended
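Further: lentivirally expressed fusions sorted by FACS into six bins by GFP to DsRed ratio, PSI derived from sequencing read proportions per bin multiplied by bin number.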

Row | Variant | protein stability index
1 | VQRAMHDYNQAEMKQRDNCKIRIQ [F1V] | 3.46
2 | WQRAMHDYNQAEMKQRDNCKIRIQ [F1W] | 3.69
3 | TQRAMHDYNQAEMKQRDNCKIRIQ [F1T] | 4.11
4 | NQRAMHDYNQAEMKQRDNCKIRIQ [F1N] | 4.4
5 | HQRAMHDYNQAEMKQRDNCKIRIQ [F1H] | 4.18
6 | CQRAMHDYNQAEMKQRDNCKIRIQ [F1C] | 3.56
7 | YQRAMHDYNQAEMKQRDNCKIRIQ [F1Y] | 2.78
8 | GQRAMHDYNQAEMKQRDNCKIRIQ [F1G] | 3.88
9 | KQRAMHDYNQAEMKQRDNCKIRIQ [F1K] | 3.98
10 | FQRAMHDYNQAEMKQRDPCKIRIQ [N18P] | 2.91
11 | FQRAMHDYNQAEMKQRDGCKIRIQ [N18G] | 2.41
12 | FQRAMHDYNQAEMKQRDHCKIRIQ [N18H] | 2.02
13 | FQRAMHDYNQAEMKQRDYCKIRIQ [N18Y] | 2.17
14 | FQRAMHDYNQAEMKQRDKCKIRIQ [N18K] | 2.56
15 | FQRAMHDYNQAEMKQRDVCKIRIQ [N18V] | 2.17
16 | FQRAMHDYNQAEMKQRDCCKIRIQ [N18C] | 2.3
17 | FQRAMHDYNQAEMKQRDQCKIRIQ [N18Q] | 2.5
18 | FQRAMHDYNQAEMKIRDNCKIRIQ [Q15I] | 2.17
19 | FQRAMHDYNQAEMKNRDNCKIRIQ [Q15N] | 2.86
20 | FQRAMHDYNQAEMKHRDNCKIRIQ [Q15H] | 2.57
21 | FQRAMHDYNQAEMKYRDNCKIRIQ [Q15Y] | 3.08
22 | FQRAMHDYNQAEMKDRDNCKIRIQ [Q15D] | 2.74
23 | FQRAMHDYNQAEMKARDNCKIRIQ [Q15A] | 2.23
24 | FQRAMHDYNQAEMKSRDNCKIRIQ [Q15S] | 2.71

Row | Variant | protein stability index
25 | FQRAMHDYNQAEMKTRDNCKIRIQ [Q15T] | 3.18
26 | FQRAMHDYNQAEMKCRDNCKIRIQ [Q15C] | 2.29
27 | FQRAMHDYNQAEMKWRDNCKIRIQ [Q15W] | 3.09
28 | FQRAMHDTNQAEMKQRDNCKIRIQ [Y8T] | 3.62
29 | FQRAMHDKNQAEMKQRDNCKIRIQ [Y8K] | 3.58
30 | FQRAMHDCNQAEMKQRDNCKIRIQ [Y8C] | 2.62
31 | FQRAMHDENQAEMKQRDNCKIRIQ [Y8E] | 3.47
32 | FQRAMHDNNQAEMKQRDNCKIRIQ [Y8N] | 3.83
33 | FQRAMHDANQAEMKQRDNCKIRIQ [Y8A] | 3.64
34 | FQRAMHDWNQAEMKQRDNCKIRIQ [Y8W] | 2.08
35 | FQRAMHDQNQAEMKQRDNCKIRIQ [Y8Q] | 3.83
36 | FQRAMHDHNQAEMKQRDNCKIRIQ [Y8H] | 3
37 | FQIAMHDYNQAEMKQRDNCKIRIQ [R3I] | 2.38
38 | FQYAMHDYNQAEMKQRDNCKIRIQ [R3Y] | 2.25
39 | FQLAMHDYNQAEMKQRDNCKIRIQ [R3L] | 2.76
40 | FQEAMHDYNQAEMKQRDNCKIRIQ [R3E] | 3.99
41 | FQAAMHDYNQAEMKQRDNCKIRIQ [R3A] | 2.94
42 | FQVAMHDYNQAEMKQRDNCKIRIQ [R3V] | 2.86
43 | FQNAMHDYNQAEMKQRDNCKIRIQ [R3N] | 3.12
44 | FQMAMHDYNQAEMKQRDNCKIRIQ [R3M] | 1.62
45 | FFRAMHDYNQAEMKQRDNCKIRIQ [Q2F] | 2.84
46 | FTRAMHDYNQAEMKQRDNCKIRIQ [Q2T] | 2.63
47 | FSRAMHDYNQAEMKQRDNCKIRIQ [Q2S] | 3.41
48 | FPRAMHDYNQAEMKQRDNCKIRIQ [Q2P] | 2.76

Row | Variant | protein stability index
49 | FDRAMHDYNQAEMKQRDNCKIRIQ [Q2D] | 4.2
50 | FKRAMHDYNQAEMKQRDNCKIRIQ [Q2K] | 3.14
51 | FVRAMHDYNQAEMKQRDNCKIRIQ [Q2V] | 2.55
52 | FNRAMHDYNQAEMKQRDNCKIRIQ [Q2N] | 3.61
53 | FMRAMHDYNQAEMKQRDNCKIRIQ [Q2M] | 2.69
54 | FQRAMRDYNQAEMKQRDNCKIRIQ [H6R] | 2.16
55 | FQRAMDDYNQAEMKQRDNCKIRIQ [H6D] | 2.92
56 | FQRAMADYNQAEMKQRDNCKIRIQ [H6A] | 2.74
57 | FQRAMEDYNQAEMKQRDNCKIRIQ [H6E] | 4
58 | FQRAMKDYNQAEMKQRDNCKIRIQ [H6K] | 2.74
59 | FQRAMQDYNQAEMKQRDNCKIRIQ [H6Q] | 2.66
60 | FQRAMVDYNQAEMKQRDNCKIRIQ [H6V] | 2.8
61 | FQRAMHSYNQAEMKQRDNCKIRIQ [D7S] | 2.21
62 | FQRAMHGYNQAEMKQRDNCKIRIQ [D7G] | 2.18
63 | FQRAMHLYNQAEMKQRDNCKIRIQ [D7L] | 1.43
64 | FQRAMHKYNQAEMKQRDNCKIRIQ [D7K] | 2.56
65 | FQRAMHIYNQAEMKQRDNCKIRIQ [D7I] | 1.7
66 | FQRAMHNYNQAEMKQRDNCKIRIQ [D7N] | 2.66
67 | FQRAMHDYNQAEMKQRFNCKIRIQ [D17F] | 1.16
68 | FQRAMHDYNQAEMKQRANCKIRIQ [D17A] | 2.28
69 | FQRAMHDYNQAEMKQRPNCKIRIQ [D17P] | 2.97
70 | FQRAMHDYNQAEMKQRMNCKIRIQ [D17M] | 2
71 | FQRAMHDYNQAEMKQRLNCKIRIQ [D17L] | 2.1
72 | FQRAMHDYNQAEMKQRGNCKIRIQ [D17G] | 2.36

Row | Variant | protein stability index
73 | FQRAMHDYNQAEMKQRRNCKIRIQ [D17R] | 1.82
74 | FQRAMHDYNQAEMKQRTNCKIRIQ [D17T] | 1.98
75 | FQRAMHDYNQAEMKQRENCKIRIQ [D17E] | 2.81
76 | FQRAMHDYNQAEMKQRDNCCIRIQ [K20C] | 2.23
77 | FQRAMHDYNQAEMKQRDNCQIRIQ [K20Q] | 2.75
78 | FQRAMHDYNQAEMKQRDNCFIRIQ [K20F] | 1.69
79 | FQRAMHDYNQAEMKQRDNCSIRIQ [K20S] | 3.15
80 | FQRAMHDYNQAEMKQRDNCRIRIQ [K20R] | 2.37
81 | FQRAMHDYNQAEMKQRDNCIIRIQ [K20I] | 1.3
82 | FQRAMHDYNQAEMKQRDNCPIRIQ [K20P] | 2.37
83 | FQRAMHDYNQAEMKQRDNCNIRIQ [K20N] | 2.83
84 | FQRAMHDYNQAEMKQRDNCTIRIQ [K20T] | 2.47
85 | FQRAMHDYNQAEMKQRDNCYIRIQ [K20Y] | 1.41
86 | FQRAMHDYNQALMKQRDNCKIRIQ [E12L] | 2.42
87 | FQRAMHDYNQATMKQRDNCKIRIQ [E12T] | 2.62
88 | FQRAMHDYNQAPMKQRDNCKIRIQ [E12P] | 2.02
89 | FQRAMHDYNQAYMKQRDNCKIRIQ [E12Y] | 1.67
90 | FQRAMHDYNQAVMKQRDNCKIRIQ [E12V] | 2.52
91 | FQRAMHDYNQASMKQRDNCKIRIQ [E12S] | 2.23
92 | FQRAMHDYNQAEMKQRDNCKIRWQ [I23W] | 2.83
93 | FQRAMHDYNQAEMKQRDNCKIRNQ [I23N] | 3.78
94 | FQRAMHDYNQAEMKQRDNCKIRSQ [I23S] | 2.66
